Measured values published in paper PMC3691326, “Structure of the Human Telomeric Stn1-Ten1 Capping Complex” (PLoS ONE, 2013).
Where a chain is given by its changes, count along the chain named. Names may count otherwise. One block for each binder: values may come before it.

Experiments:
[1] = biological target: T1, human Stn1, full length, wild type (human, UniProt Q9H668 1-368); test: ITC; MicroCal iTC200; hTen1 at 125 µM injected into the cell with hStn1 at 12 µM; 20°C; 300 mM KCl, 25 mM Tris-HCl pH 7.5, 1 mM DTT, 5% glycerol; 2.47 µL injections; details: both partners purified
T1 construct: human Stn1 (hStn1), subunit of the human CST complex, full length; The methods describe the his-MBP tag for hStn1N only and say that full-length hStn1 was overexpressed and purified by the same procedure; also called hStn1; hStn1(WT); not shown: His (by 'the same procedure' as hStn1N), N-terminal, cleaved; MBP (by 'the same procedure' as hStn1N), N-terminal, cleaved
T1 sequence (looked up): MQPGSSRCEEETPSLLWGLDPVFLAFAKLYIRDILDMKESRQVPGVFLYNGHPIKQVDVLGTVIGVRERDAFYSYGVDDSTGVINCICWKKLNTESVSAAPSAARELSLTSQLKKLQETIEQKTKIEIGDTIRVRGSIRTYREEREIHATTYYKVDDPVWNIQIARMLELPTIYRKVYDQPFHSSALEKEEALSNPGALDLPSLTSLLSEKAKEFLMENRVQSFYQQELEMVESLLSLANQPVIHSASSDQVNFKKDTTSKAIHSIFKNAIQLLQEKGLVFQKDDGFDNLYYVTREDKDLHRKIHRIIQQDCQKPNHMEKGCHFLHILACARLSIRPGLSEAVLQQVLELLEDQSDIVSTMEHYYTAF

hTen1 = biological target: T2, hTen1 (Homo sapiens, UniProt Q86WV5 1-123); test: fluorescence polarization; not detected; FP: 100 mM NaCl, 5 mM MgCl2, 1 mM DTT, 5% glycerol, 1 mg/mL BSA, 2.5 nM 6-FAM DNA, room temperature; pH not stated; details: protein: recombinant; single strand
T2 sequence: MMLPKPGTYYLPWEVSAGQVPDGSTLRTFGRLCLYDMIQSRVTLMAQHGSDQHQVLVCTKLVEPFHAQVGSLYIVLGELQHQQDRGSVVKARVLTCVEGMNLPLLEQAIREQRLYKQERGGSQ

hStn1 = biological target: T3, hStn1 (Homo sapiens, UniProt Q9H668 1-368); test: fluorescence polarization; FP: 100 mM NaCl, 5 mM MgCl2, 1 mM DTT, 5% glycerol, 1 mg/mL BSA, 2.5 nM 6-FAM DNA, room temperature; pH not stated; details: protein: recombinant; tags: none stated after TEV cleavage (his-MBP fusion removed); single strand
T3 sequence: T1 sequence (looked up)

Kd [1]: 6.3 nM
B1: human Ten1, full length, wild type (natural protein, UniProt Q86WV5 1-123, looked up)
chain: T2 sequence
notes: human Ten1 (hTen1), subunit of the human CST complex, full length; Purification is described only for the complex with hStn1N (cells mixed before lysis; tags cleaved by TEV); also called hTen1; hTen1(WT); source: E. coli BL21-CodonPlus(DE3) RIPL, purified; not shown: His, N-terminal, cleaved

Kd [1]: 33 nM
B2: human Ten1 (R27Q), full length (natural protein, UniProt Q86WV5 1-123, looked up)
chain: T2 sequence with R27Q
notes: human Ten1, full length, with R27Q; also called hTen1(R27Q); source: purified (pure, homogeneous)

Kd [1]: 14 nM
B3: human Ten1 (Y115A), full length (natural protein, UniProt Q86WV5 1-123, looked up)
chain: T2 sequence with Y115A
notes: human Ten1, full length, with Y115A; also called hTen1(Y115A); source: purified (pure, homogeneous)

Kd [1]: 13 nM
B4: human Ten1 (R119Q), full length (natural protein, UniProt Q86WV5 1-123, looked up)
chain: T2 sequence with R119Q
notes: human Ten1, full length, with R119Q; also called hTen1(R119Q); source: purified (pure, homogeneous)

B5: tel30 (ssDNA)
DNA: TTAGGGTTAGGGTTAGGGTTAGGGTTAGGG
binding result (hTen1): no binding

B6: tel18 (ssDNA)
DNA: TTAGGGTTAGGGTTAGGG
Kd (hStn1): ~200 nM

B7: tel12 (ssDNA)
DNA: TTAGGGTTAGGG
Kd (hStn1): ~1000 nM

B8: rand18 (ssDNA)
DNA: GTTACGAAATACGGACAC
Kd (hStn1): ~200 nM
